Holding throughout (conditions): both partners purified
Experiment [1] concerns the target MPXV A28 (OPG153), residues 2-361 (Monkeypox virus, template GenBank …, UniProt A0A7H0DNC4). Put plainly: ELISA. On the technique in general: An ELISA detects its analyte on a solid surface through an enzyme-linked reagent.
The target of experiment [2] is T1, VACV A26 (OPG153), residues 2-361 (Vaccinia virus strain IHDW, template …, UniProt P24758, strain).
T1 construct: also called VACV homolog of A28
Nature of the experiment: ELISA.

The target of experiment [3] is T2, VACV A26 head domain (amino acids 1-397), strain Western Reserve (Vaccinia virus (strain Western Reserve), UniProt P24758).
T2 construct: also called residues 1-397 of A26
Put plainly: crystal structure.

Sequence of MPXV A28 (OPG153), residues 2-361 (A0A7H0DNC4 whole entry, looked up, the tested form may be a part): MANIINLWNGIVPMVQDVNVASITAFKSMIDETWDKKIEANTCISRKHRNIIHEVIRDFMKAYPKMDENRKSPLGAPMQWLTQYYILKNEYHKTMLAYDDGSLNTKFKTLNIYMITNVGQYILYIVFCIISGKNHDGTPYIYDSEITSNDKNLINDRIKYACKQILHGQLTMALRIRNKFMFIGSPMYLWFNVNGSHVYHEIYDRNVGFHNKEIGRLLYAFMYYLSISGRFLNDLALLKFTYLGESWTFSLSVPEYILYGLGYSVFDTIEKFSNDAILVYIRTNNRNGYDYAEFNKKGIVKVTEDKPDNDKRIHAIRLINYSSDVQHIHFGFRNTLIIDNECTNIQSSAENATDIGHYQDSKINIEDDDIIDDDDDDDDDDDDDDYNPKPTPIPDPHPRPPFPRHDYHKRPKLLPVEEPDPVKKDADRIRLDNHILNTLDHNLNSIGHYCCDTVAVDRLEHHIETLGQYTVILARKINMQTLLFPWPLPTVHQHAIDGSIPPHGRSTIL

B1: Germline 1 (germline-reverted 10M2146 / 10M2154) (antibody, V domains shown)
VH: EVQLVQSGAEVKKPGESLKISCKGSGYSFTSYWIGWVRQMPGKGLEWMGIIYPGDSDTRYSPSFQGQVTISADKSISTAYLQWSSLKASDTAMYYCARRPKYYYDSSGYYNWLDPWGQGTLVTVSS
VL: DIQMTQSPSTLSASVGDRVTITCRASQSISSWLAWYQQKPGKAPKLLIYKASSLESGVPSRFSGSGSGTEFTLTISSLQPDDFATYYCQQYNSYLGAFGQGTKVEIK
Take B1: the binding result in experiment [1] and in experiment [2] was “binds” throughout.

B2: mAb 10M2146 (human IgG1, anti-A28) (antibody, V domains shown)
VH: EVQLVQSGAEVKKPGESLKISCKGSGYSFTTHWIGWVRQMPGEGLEWLGIIYPGDSETKYSPSFQGQVTISVDKSINTAYLHWSSLKASDTAMYFCARRPKNYYDASGYYNWLDPWGQGTLVTVSS
VL: EIQMTQSPSTLSASVGDRVTITCRASQSLSTWLAWYQQKPGKAPKLLIYKASILESGVPSRFSASGSGTEFTLTISGLQPDDFATYYCQQYNSYLGAFGQGTKVEIK
On to B2, for which the binding result in experiment [1] and in experiment [2] was “binds” in each case.

B3: Fab 10M2146 (Fab, V domains shown)
VH: B2 VH
VL: B2 VL
notes: also called 10M2146 F(ab)
Regarding B3, the binding result in experiment [3] was “binds”.

For the origin of these results see article PMC12748864, “Potent neutralization by antibodies targeting the MPXV A28 protein” (Nature Communications, 2025).
